Assay [1] addresses HTT(1-17) peptide, the 17 N-terminal residues of huntingtin (human) (UniProt P42858). Put plainly: ITC; isothermal calorimetry of C4 scFv with HTT(1-17) and truncated peptides; conditions not shown (Fig. S3).
The target in assay [2] is truncated peptide HTT(1-14) (human) (UniProt P42858). The description is as above.

Turning to C4 single-chain Fv antibody (C4 scFv), the Kd in assay [1] is 50 nM. The fold decrease in binding affinity compared to HTT(1-17) in assay [2] was found to be 10 fold.

Values taken from article PMC4451460.
